# B1: Epstein-Barr nuclear antigen leader protein (Epstein-Barr virus (strain B95-8) (HHV-4)), Q8AZK7 (parent)
# chain: MGDRSEGPGPTRPGPPGIGPEGPLGQLLRRHRSPSPTRGGQEPRRVRRRVLVQQEEEVVSGSPSGPRGDRSEGPGPTRPGPPGIGPEGPLGQLLRRHRSPSPTRGGQEPRRVRRRVLVQQEEEVVSGSPSGPRGDRSEGPGPTRPGPPGIGPEGPLGQLLRRHRSPSPTRGGQEPRRVRRRVLVQQEEEVVSGSPSGPRGDRSEGPGPTRPGPPGIGPEGPLGQLLRRHRSPSPTRGGQEPRRVRRRVLVQQEEEVVSGSPSGPRGDRSEGPGPTRPGPPGIGPEGPLGQLLRRHRSPSPTRGGQEPRRVRRRVLVQQEEEVVSGSPSGPRGDRSEGPGPTRPGPPGIGPEGPLGQLLRRHRSPSPTRGGQEPRRVRRRVLVQQEEEVVSGSPSGPRGDRSEGPGPTRPGPPGIGPEGPLGQLLRRHRSPSPTRGGQEPRRVRRRVLVQQEEEVVSGSPSGPLRPRPRPPARSLREWLLRIRDHFEPPTVTTQRQSVYIEEEEDED
# Variants of: B1
# Conditions: with hdac4_human HDAC4, P56524
# Sequence of hdac4_human HDAC4, P56524 (P56524 whole entry): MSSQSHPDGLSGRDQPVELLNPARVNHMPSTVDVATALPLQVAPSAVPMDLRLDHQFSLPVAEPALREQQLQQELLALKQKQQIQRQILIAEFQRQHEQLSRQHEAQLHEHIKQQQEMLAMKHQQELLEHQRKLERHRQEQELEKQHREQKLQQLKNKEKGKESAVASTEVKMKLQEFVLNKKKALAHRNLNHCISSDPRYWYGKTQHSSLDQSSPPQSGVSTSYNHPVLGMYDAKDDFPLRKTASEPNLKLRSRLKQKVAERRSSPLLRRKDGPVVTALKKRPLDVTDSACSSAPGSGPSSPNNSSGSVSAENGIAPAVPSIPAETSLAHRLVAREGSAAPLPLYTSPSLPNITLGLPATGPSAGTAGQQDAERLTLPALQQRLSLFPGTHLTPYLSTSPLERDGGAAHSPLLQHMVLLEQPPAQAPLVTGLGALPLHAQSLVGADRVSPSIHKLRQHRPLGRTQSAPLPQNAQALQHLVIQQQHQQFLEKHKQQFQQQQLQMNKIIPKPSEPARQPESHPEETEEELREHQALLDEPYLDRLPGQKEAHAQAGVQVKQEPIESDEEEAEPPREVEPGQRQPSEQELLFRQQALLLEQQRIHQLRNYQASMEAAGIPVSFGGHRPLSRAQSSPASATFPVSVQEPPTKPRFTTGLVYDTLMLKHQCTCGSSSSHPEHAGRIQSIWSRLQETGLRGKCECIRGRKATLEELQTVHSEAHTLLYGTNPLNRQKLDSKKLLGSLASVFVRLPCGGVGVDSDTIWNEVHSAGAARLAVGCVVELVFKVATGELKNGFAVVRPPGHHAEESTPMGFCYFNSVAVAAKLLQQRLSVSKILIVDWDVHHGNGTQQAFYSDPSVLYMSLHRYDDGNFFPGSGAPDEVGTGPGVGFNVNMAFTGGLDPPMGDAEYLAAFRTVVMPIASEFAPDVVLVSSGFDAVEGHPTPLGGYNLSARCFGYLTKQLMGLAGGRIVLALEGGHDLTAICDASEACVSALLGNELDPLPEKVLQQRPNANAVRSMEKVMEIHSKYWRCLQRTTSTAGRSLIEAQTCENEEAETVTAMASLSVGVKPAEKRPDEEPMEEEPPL
row,Variant,effect of a mutation on the interaction
1,MGDRSEGPGPTRPGPPGIGPEGPLGQLLRRHRAPAPTRGGQEPRRVRRRVLVQQEEEVVSGAPSGPRGDRSEGPGPTRPGPPGIGPEGPLGQLLRRHRSPSPTRGGQEPRRVRRRVLVQQEEEVVSGSPSGPRGDRSEGPGPTRPGPPGIGPEGPLGQLLRRHRSPSPTRGGQEPRRVRRRVLVQQEEEVVSGSPSGPRGDRSEGPGPTRPGPPGIGPEGPLGQLLRRHRSPSPTRGGQEPRRVRRRVLVQQEEEVVSGSPSGPRGDRSEGPGPTRPGPPGIGPEGPLGQLLRRHRSPSPTRGGQEPRRVRRRVLVQQEEEVVSGSPSGPRGDRSEGPGPTRPGPPGIGPEGPLGQLLRRHRSPSPTRGGQEPRRVRRRVLVQQEEEVVSGSPSGPRGDRSEGPGPTRPGPPGIGPEGPLGQLLRRHRSPSPTRGGQEPRRVRRRVLVQQEEEVVSGSPSGPLRPRPRPPARSLREWLLRIRDHFEPPTVTTQRQSVYIEEEEDED [S33A;S35A;S62A],decreasing interaction strength

# Reference: IntAct's records for PubMed 17159145
